Measurements reported in the Human Domainome abundance scans (Beltran et al. 2025).
± gives the uncertainty stated by the source.

B1: PMS1 protein homolog 1, residues 572 to 637; numbered along this chain, P54277 (parent)
chain: KKPMSASALFVQDHRPQFLIENPKTSLEDATLQIEELWKTLSEEEKLKYEEKATKDLERYNSQMKR
B2: TOX high mobility group box family member 3, residues 256 to 323; numbered along this chain, O15405 (parent)
chain: QKPVSAYALFFRDTQAAIKGQNPNATFGEVSKIVASMWDSLGEEQKQVYKRKTEAAKKEYLKALAAYR

Variants of: B1
Experiment: abundance fitness (aPCA) (normalised: wild type 0, dead -1); higher = more abundant; growth selection in yeast, the domain comes from the species named
Details: Homo sapiens

Point of comparison: L47P, abundance fitness -0.975 ± 0.4. Against it:
- F10R — within error, -0.651 ± 0.074
- F10N — within error, -0.655 ± 0.16
- F10S — higher, -0.422 ± 0.13
- F10P — within error, -0.686 ± 0.22
- F10E — within error, -0.483 ± 0.12
- M4P — higher, -0.064 ± 0.18
- L41C — higher, -0.196 ± 0.13
- L9G — higher, -0.308 ± 0.11
- L9S — higher, -0.254 ± 0.12
- S7Q — higher, 0.176 ± 0.12
- S7K — higher, 0.069 ± 0.2
- P16M — within error, -0.447 ± 0.21
- T40R — higher, -0.125 ± 0.071
- T40E — higher, -0.028 ± 0.18
- E44D — higher, -0.081 ± 0.083
- E44W — higher, -0.433 ± 0.067
- R15F — higher, 0.035 ± 0.43
- R15E — higher, -0.409 ± 0.14
- T25P — within error, -0.627 ± 0.14
- K48V — higher, -0.008 ± 0.1
- K48N — higher, -0.375 ± 0.13
- Q63T — higher, -0.072 ± 0.088
- S26F — within error, -0.775 ± 0.08
- S26I — within error, -0.605 ± 0.053
- S26N — higher, -0.167 ± 0.068
- S26R — higher, -0.282 ± 0.062
- S26P — higher, -0.21 ± 0.06
- S26V — within error, -0.654 ± 0.073
- L32D — higher, -0.283 ± 0.18
- E58A — higher, -0.113 ± 0.059
- E58D — higher, -0.047 ± 0.095
- E58F — higher, -0.321 ± 0.071
- E45D — higher, -0.133 ± 0.1
- E45I — higher, -0.085 ± 0.14
- E45L — higher, -0.262 ± 0.067
- N61Q — higher, -0.098 ± 0.083
- R59C — higher, -0.121 ± 0.069
- K2L — higher, -0.08 ± 0.39
- K2E — higher, -0.433 ± 0.11
- K2F — within error, -0.242 ± 0.41
- K2R — higher, -0.332 ± 0.11
- K2Q — within error, -0.545 ± 0.15
- K65G — within error, -0.497 ± 0.19
- K65R — higher, -0.086 ± 0.12
- S62C — higher, 0.12 ± 0.13
- Y60K — higher, -0.075 ± 0.11
- Y60H — higher, -0.075 ± 0.13
- Y60P — higher, -0.109 ± 0.11
- Y60N — higher, 0.022 ± 0.19
- Y60C — higher, -0.002 ± 0.13
- Y60S — higher, 0.04 ± 0.07
- K52M — higher, 0.102 ± 0.099
- K52D — higher, -0.357 ± 0.12
- K55T — higher, -0.058 ± 0.096
- L37I — higher, -0.357 ± 0.15
- L37R — higher, -0.091 ± 0.15
- Q33A — higher, -0.05 ± 0.12
- Q33R — higher, -0.229 ± 0.18
- A30E — within error, -0.414 ± 0.21
- A30Q — within error, -0.439 ± 0.41
- L57F — higher, -0.17 ± 0.12
- M64P — higher, -0.108 ± 0.096
- M64D — higher, -0.32 ± 0.2
- M64A — higher, -0.059 ± 0.09
- M64E — higher, -0.195 ± 0.2
- M64K — higher, -0.349 ± 0.21
- M64F — higher, -0.095 ± 0.15
- R66A — higher, 0.067 ± 0.082
- R66N — higher, 0.031 ± 0.34
- R66Y — higher, -0.069 ± 0.13
- E43C — higher, -0.102 ± 0.073
- E51S — higher, -0.158 ± 0.049
- E51H — higher, -0.131 ± 0.069
- E51M — higher, -0.132 ± 0.099
- L27P — higher, 0.057 ± 0.22
- S42E — higher, -0.101 ± 0.067
- S42M — within error, -0.813 ± 0.088
- S42R — higher, -0.24 ± 0.051
- A53T — higher, -0.345 ± 0.076
- T54S — higher, 0.015 ± 0.076
- T54N — higher, -0.045 ± 0.088
- Y49W — higher, -0.013 ± 0.14
- Y49D — within error, -0.634 ± 0.28
- K1E — higher, -0.022 ± 0.14
- A6Y — within error, -0.925 ± 0.45
- A6G — higher, -0.306 ± 0.083
- D56F — higher, -0.244 ± 0.19
- S5K — higher, -0.179 ± 0.12
- S5M — higher, -0.411 ± 0.13
- E35T — higher, -0.207 ± 0.15
- E35V — within error, -0.548 ± 0.12

Variants of: B2
Experiment: as above
Details: Homo sapiens

Point of comparison: D13K, abundance fitness -0.646 ± 0.18. Against it:
- L9C — higher, -0.106 ± 0.1
- L9Q — higher, 0.053 ± 0.073
- L9M — higher, -0.035 ± 0.081
- L9W — higher, -0.218 ± 0.11
- L9D — within error, -0.217 ± 0.29
- L9R — within error, -0.498 ± 0.1
- L9N — within error, -0.705 ± 0.41
- L9V — higher, -0.224 ± 0.077
- L9I — higher, 0.233 ± 0.13
- L9P — within error, -1.08 ± 0.39
- L9A — higher, -0.042 ± 0.064
- L9K — within error, -0.425 ± 0.13
- L9H — within error, -0.394 ± 0.19
- L9T — higher, -0.039 ± 0.084
- L9E — higher, 0.262 ± 0.16
- L9G — higher, -0.303 ± 0.083
- L9S — higher, 0.077 ± 0.091
- L9F — higher, -0.31 ± 0.11
- Y7N — higher, 0.007 ± 0.16
- Y7W — within error, -0.462 ± 0.098
- Y7C — within error, -0.585 ± 0.19
- Y7L — within error, -0.547 ± 0.075
- Y7I — within error, -0.48 ± 0.14
- Y7E — higher, -0.263 ± 0.11
- Y7F — within error, -0.339 ± 0.15
- Y7P — within error, -0.452 ± 0.16
- Y7A — within error, -0.498 ± 0.14
- Y7R — higher, -0.244 ± 0.042
- Y7G — higher, -0.33 ± 0.07
- Y7K — higher, -0.033 ± 0.077
- Y7S — within error, -0.404 ± 0.076
- Y7T — within error, -0.679 ± 0.11
- Y7V — within error, -0.651 ± 0.13
- Y7Q — higher, -0.212 ± 0.12
- Y7H — higher, -0.199 ± 0.14
- A6R — within error, -0.808 ± 0.1
- A6H — within error, -0.597 ± 0.37
- A6S — higher, -0.075 ± 0.092
- A6L — higher, -0.37 ± 0.086
- A6T — within error, -0.6 ± 0.18
- A6I — within error, -0.833 ± 0.37
- A6V — within error, -0.601 ± 0.084
- A6G — higher, -0.168 ± 0.079
- A6W — within error, -0.848 ± 0.13
- A6E — higher, 0.156 ± 0.16
- A6C — within error, -0.372 ± 0.17
- A6P — higher, 0.054 ± 0.059
- A6Y — within error, -0.34 ± 0.17
- A6Q — higher, -0.185 ± 0.17
- A6F — within error, -0.661 ± 0.16
- A6M — higher, -0.316 ± 0.1
- Q1F — higher, -0.088 ± 0.13
- Q1R — higher, -0.087 ± 0.06
- Q1Y — higher, 0.123 ± 0.073
- Q1N — higher, 0.271 ± 0.15
- Q1L — higher, -0.124 ± 0.072
- Q1I — higher, -0.035 ± 0.11
- Q1W — higher, -0.282 ± 0.11
- Q1S — within error, -0.386 ± 0.16
- Q1T — higher, 0.012 ± 0.094
- Q1M — higher, 0.137 ± 0.13
- Q1A — within error, -0.474 ± 0.16
- Q1H — higher, 0.119 ± 0.09
- Q1K — higher, 0.247 ± 0.15
- Q1G — higher, 0.107 ± 0.088
- Q1C — within error, -0.362 ± 0.14
- D13I — within error, -0.442 ± 0.095
- D13F — within error, -0.494 ± 0.12
- D13N — within error, -0.462 ± 0.13
- D13V — higher, -0.344 ± 0.074
- D13S — within error, -0.516 ± 0.092
- D13E — higher, 0.11 ± 0.08
- D13T — higher, -0.247 ± 0.089
- D13C — higher, -0.314 ± 0.091
